Target: complement component C3 (human) (human, UniProt P01024 23-1663)
Assay: cell-based or functional assay

B1: (CA28-AEEAc)8-PEG40k (peptide)
peptide: ICVWQDWGAHRCTK
modifications: N-terminal acetyl; (1Me)Trp at position 4; disulfide Cys2-Cys12; AEEAc between Thr13 and Lys; C-terminal amide; Lys side chain coupled to an arm of an eight-arm 40 kD PEG (NOF SUNBRIGHT HGEO-400GS)
- IC50, classical complement inhibition assay (C3b deposition ELISA), as a function of CA28 moiety concentration: 1930 nM
